Kd data for one molecule are collected here from article PMC9739371, “Deciphering the Binding of the Nuclear Localization Sequence of Myc Protein to the Nuclear Carrier Importin α3” (International Journal of Molecular Sciences, 2022).

Where “and” joins values, the source holds several entries; their conditions need not be identical. Equal values may be shown once.

For orientation: Kd means the constant that tells how readily two partners part at equilibrium. A low value points to higher affinity.

Experiment [1] has as its target T1, human importin α3 isoform (residues 1-521) (human, UniProt O00629 1-521).
T1 construct: importin α3 (Impα3), human, residues 1-521, with the N-terminal IBB domain; also called Impα3; source: purified as previously described [18,19,20]
T1 sequence (looked up): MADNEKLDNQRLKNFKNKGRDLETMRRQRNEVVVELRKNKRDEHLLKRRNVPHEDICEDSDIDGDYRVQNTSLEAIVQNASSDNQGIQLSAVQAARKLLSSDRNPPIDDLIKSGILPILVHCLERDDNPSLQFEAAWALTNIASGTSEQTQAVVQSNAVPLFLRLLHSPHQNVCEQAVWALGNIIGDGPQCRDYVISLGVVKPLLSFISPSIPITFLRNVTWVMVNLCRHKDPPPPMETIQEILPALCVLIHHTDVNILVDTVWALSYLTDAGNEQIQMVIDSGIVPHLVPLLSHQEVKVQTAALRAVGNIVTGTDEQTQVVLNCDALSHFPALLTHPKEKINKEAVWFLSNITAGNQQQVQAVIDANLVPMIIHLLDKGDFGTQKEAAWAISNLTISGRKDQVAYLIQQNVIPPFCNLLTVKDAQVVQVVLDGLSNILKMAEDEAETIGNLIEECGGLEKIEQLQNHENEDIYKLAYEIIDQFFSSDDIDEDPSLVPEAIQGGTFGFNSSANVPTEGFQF
Kind of experiment: BLI; BLItz system; His-tagged Impα3 or ΔImpα3 immobilised on His-tag biosensors at 0.5 µM; NLS-Myc 1 to 7 µM in solution; 10x kinetics buffer of the manufacturer; 25 °C; kon and koff from a pseudo-first-order plot. The conditions noted are these: both partners purified. On the technique in general: In BLI a coated tip is dipped into the sample, and binding shifts an interference pattern.

Experiment [2] has as its target T2, IBB-depleted species of importin α3 (residues 64-521 of the intact protein) (human, UniProt O00629 64-521).
T2 construct: also called ΔImpα3; truncated species of Impα3; source: purified as previously described [18,19,20]
T2 sequence (looked up): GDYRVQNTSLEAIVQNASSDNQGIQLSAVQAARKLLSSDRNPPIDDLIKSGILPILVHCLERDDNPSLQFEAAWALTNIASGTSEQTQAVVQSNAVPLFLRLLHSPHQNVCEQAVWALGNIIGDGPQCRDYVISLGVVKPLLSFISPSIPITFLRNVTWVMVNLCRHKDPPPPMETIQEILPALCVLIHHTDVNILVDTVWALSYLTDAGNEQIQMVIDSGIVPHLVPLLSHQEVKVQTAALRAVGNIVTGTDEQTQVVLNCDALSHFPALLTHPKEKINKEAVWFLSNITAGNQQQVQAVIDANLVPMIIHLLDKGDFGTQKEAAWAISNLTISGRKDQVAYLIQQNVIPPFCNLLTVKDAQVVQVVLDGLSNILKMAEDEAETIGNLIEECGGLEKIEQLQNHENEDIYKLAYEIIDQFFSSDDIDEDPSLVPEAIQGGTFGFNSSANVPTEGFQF
Described as above. The conditions noted are these: both partners purified.

B1: NLS-Myc peptide (Ala310-Asn339 of human c-Myc) (peptide)
peptide: AAPPSTRKDYPAAKRVKLDSVRVLRQISNN
notes: human c-Myc, residues Ala310-Asn339: canonical NLS Pro320-Asp328 with the flanking residues of native Myc; also called the peptide; source: synthetic peptide, produced by NZYtech (Lisbon, Portugal), purity larger than 95%
With B1, the Kd in experiment [1] was 500 nM and 600 nM; in experiment [2] it was 60 ± 30 nM.
